The source of these data is publication doi:10.1101/369462.

The experiment concerns the target truncated M1 C-terminal domain ([change], aa 165-252) (influenza/A/FPV/Rostock/34) (UniProt P03487). Nature of the experiment: raster image correlation spectroscopy.

As to “truncated M1 C-terminal domain ([change], aa 165-252) (from UniProt P03487 165-252) (domain or fragment)”, the brightness of M1 wt relative to M1-C (fold) was 4.3 fold.
